Data on 62 sequences can be found in the supplement of paper PMC9112550, “Optimization of the antimicrobial peptide Bac7 by deep mutational scanning” (BMC Biology, 2022).

This data set concerns Escherichia coli TOP10. Kind of data set: shrunken log2 fold change of peptide-encoding DNA abundance (4.5 h post-induction vs induction); higher = less antimicrobial activity (less host growth inhibition). The conditions noted are these: time post-induction: 4.5 h; library: site-saturation at positions 5, 18, 19, 20.
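Also: peptides expressed intracellularly from a pBAD plasmid library in pooled LB shake-flask culture, induced with 0.3% L-arabinose, DNA abundance read by NGS, three biological replicates, DESeq2 with apeglm shrinkage.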

Take RRIRKRPPRLPRPRPRPSRFPRP: the “shrunken log2 fold change” value was 1.06. On to RRIRQRPPRLPRPRPRPQDDPRP, for which the “shrunken log2 fold change” value was -0.0165. Take RRIRYRPPRLPRPRPRPARGPRP: the “shrunken log2 fold change” value is 0.515. The same measure for RRIRERPPRLPRPRPRPEKPPRP: 3.84; for RRIRLRPPRLPRPRPRPAFIPRP: -0.116; for RRIRWRPPRLPRPRPRPPLTPRP: 0.432.

For the sequence RRIRVRPPRLPRPRPRPTNPPRP, the “shrunken log2 fold change” value is -0.296.

RRIRVRPPRLPRPRPRPMVGPRP: the “shrunken log2 fold change” value came out at 0.0148. In the case of RRIRPRPPRLPRPRPRPSRIPRP it was -0.0841; in that of RRIRTRPPRLPRPRPRPQRMPRP, -0.272. For the sequence RRIRHRPPRLPRPRPRPSIMPRP, the “shrunken log2 fold change” value was -0.423.

For the sequence RRIRRRPPRLPRPRPRPPCVPRP, the “shrunken log2 fold change” value turned out to be 1.02. The same measure for RRIRCRPPRLPRPRPRPKDDPRP: 0.146. Take RRIRARPPRLPRPRPRPSKDPRP: the “shrunken log2 fold change” value is -0.111. In the case of RRIRFRPPRLPRPRPRPTKSPRP it was 0.106; in that of RRIRHRPPRLPRPRPRPFSCPRP, -0.0244; in that of RRIRVRPPRLPRPRPRPQCIPRP, 0.101. Regarding RRIRRRPPRLPRPRPRPYKGPRP, the “shrunken log2 fold change” value was 0.0251.

As to RRIRTRPPRLPRPRPRPRMRPRP, the “shrunken log2 fold change” value was 0.753. Take RRIRYRPPRLPRPRPRPYTMPRP: the “shrunken log2 fold change” value was -0.301. Consider RRIRVRPPRLPRPRPRPARDPRP, for which the “shrunken log2 fold change” value came to 0.355. Regarding RRIRLRPPRLPRPRPRPLICPRP, the “shrunken log2 fold change” value amounted to 0.128. On to RRIRWRPPRLPRPRPRPPHSPRP, for which the “shrunken log2 fold change” value was 0.218. In the case of RRIRSRPPRLPRPRPRPDGSPRP, the “shrunken log2 fold change” value was -0.0196. In the case of RRIRDRPPRLPRPRPRPFKRPRP, the “shrunken log2 fold change” value is -0.00875. In the case of RRIRIRPPRLPRPRPRPKWGPRP, the “shrunken log2 fold change” value was -0.00761. For the sequence RRIRMRPPRLPRPRPRPERCPRP, the “shrunken log2 fold change” value is 0.201. RRIRIRPPRLPRPRPRPYKAPRP: the “shrunken log2 fold change” value is -0.361. RRIRLRPPRLPRPRPRPQQTPRP: the “shrunken log2 fold change” value was 0.168. The same measure for RRIRRRPPRLPRPRPRPIKHPRP: 0.0383; for RRIRNRPPRLPRPRPRPKVEPRP: 0.039; for RRIRSRPPRLPRPRPRPNEEPRP: 0.0709.

For RRIRARPPRLPRPRPRPGASPRP, the “shrunken log2 fold change” value came out at 0.978. RRIRERPPRLPRPRPRPVKAPRP: the “shrunken log2 fold change” value is -0.0316.

On to RRIRKRPPRLPRPRPRPEMNPRP, for which the “shrunken log2 fold change” value came out at 2.14. As to RRIRNRPPRLPRPRPRPYQCPRP, the “shrunken log2 fold change” value was -0.00804. Regarding RRIRARPPRLPRPRPRPKEWPRP, the “shrunken log2 fold change” value is 1.16. As to RRIRKRPPRLPRPRPRPVEGPRP, the “shrunken log2 fold change” value is -0.006. For the sequence RRIRPRPPRLPRPRPRPHTRPRP, the “shrunken log2 fold change” value stood at 0.171. The same measure for RRIRYRPPRLPRPRPRPLWIPRP: -0.103. For RRIRPRPPRLPRPRPRPIYIPRP, the “shrunken log2 fold change” value is -0.36. In the case of RRIRDRPPRLPRPRPRPWNTPRP it was -0.166; in that of RRIRMRPPRLPRPRPRPKQQPRP, 0.48; in that of RRIRFRPPRLPRPRPRPGFLPRP, -0.296.

Turning to RRIRVRPPRLPRPRPRPLYNPRP, the “shrunken log2 fold change” value is -0.56.

With RRIRFRPPRLPRPRPRPDECPRP, the “shrunken log2 fold change” value was -0.399. As to RRIRVRPPRLPRPRPRPCFEPRP, the “shrunken log2 fold change” value was -0.0173. In the case of RRIRLRPPRLPRPRPRPKCIPRP it was -0.9; in that of RRIRARPPRLPRPRPRPQKPPRP, 0.117; in that of RRIRKRPPRLPRPRPRPMWCPRP, -0.113. Regarding RRIRKRPPRLPRPRPRPCVFPRP, the “shrunken log2 fold change” value worked out at 0.204.

As to RRIRTRPPRLPRPRPRPMDKPRP, the “shrunken log2 fold change” value is -0.528. For RRIRDRPPRLPRPRPRPDRKPRP, the “shrunken log2 fold change” value was -0.055. In the case of RRIRHRPPRLPRPRPRPNGRPRP it was -9.3e-05.

On to RRIRMRPPRLPRPRPRPGWSPRP, for which the “shrunken log2 fold change” value was found to be 0.548. In the case of RRIRTRPPRLPRPRPRPHMAPRP it was -0.123; in that of RRIRGRPPRLPRPRPRPQIIPRP, 0.203; in that of RRIRIRPPRLPRPRPRPESMPRP, 0.0174. In the case of RRIRPRPPRLPRPRPRPNPAPRP, the “shrunken log2 fold change” value is 0.234. On to RRIRERPPRLPRPRPRPDYWPRP, for which the “shrunken log2 fold change” value was -0.276. In the case of RRIRARPPRLPRPRPRPHEAPRP it was -0.0395; in that of RRIRWRPPRLPRPRPRPKWGPRP, 0.463.
